Test results as given in IntAct's records for PubMed 11779503.

B1: Mothers against decapentaplegic homolog 4 (Homo sapiens), Q13485 (parent)
chain: MDNMSITNTPTSNDACLSIVHSLMCHRQGGESETFAKRAIESLVKKLKEKKDELDSLITAITTNGAHPSKCVTIQRTLDGRLQVAGRKGFPHVIYARLWRWPDLHKNELKHVKYCQYAFDLKCDSVCVNPYHYERVVSPGIDLSGLTLQSNAPSSMMVKDEYVHDFEGQPSLSTEGHSIQTIQHPPSNRASTETYSTPALLAPSESNATSTANFPNIPVASTSQPASILGGSHSEGLLQIASGPQPGQQQNGFTGQPATYHHNSTTTWTGSRTAPYTPNLPHHQNGHLQHHPPMPPHPGHYWPVHNELAFQPPISNHPAPEYWCSIAYFEMDVQVGETFKVPSSCPIVTVDGYVDPSGGDRFCLGQLSNVHRTEAIERARLHIGKGVQLECKGEGDVWVRCLSDHAVFVQSYYLDREAGRAPGDAVHKIYPSAYIKVFDLRQCHRQMQQQAATAQAAAAAQAAAVAGNIPGPGSVGGIAPAISLSAAAGIGVDDLRRLCILRMSFVKGWGPDYPRQSIKETPCWIEIHLHRALQLLDEVLHTMPIADPQPLD
B2: Mothers against decapentaplegic homolog 2 (Homo sapiens), Q15796 (parent)
chain: MSSILPFTPPVVKRLLGWKKSAGGSGGAGGGEQNGQEEKWCEKAVKSLVKKLKKTGRLDELEKAITTQNCNTKCVTIPSTCSEIWGLSTPNTIDQWDTTGLYSFSEQTRSLDGRLQVSHRKGLPHVIYCRLWRWPDLHSHHELKAIENCEYAFNLKKDEVCVNPYHYQRVETPVLPPVLVPRHTEILTELPPLDDYTHSIPENTNFPAGIEPQSNYIPETPPPGYISEDGETSDQQLNQSMDTGSPAELSPTTLSPVNHSLDLQPVTYSEPAFWCSIAYYELNQRVGETFHASQPSLTVDGFTDPSNSERFCLGLLSNVNRNATVEMTRRHIGRGVRLYYIGGEVFAECLSDSAIFVQSPNCNQRYGWHPATVCKIPPGCNLKIFNNQEFAALLAQSVNQGFEAVYQLTRMCTIRMSFVKGWGAEYRRQTVTSTPCWIELHLNGPLQWLDKVLTQMGSPSVRCSSMS

Variants of: B1
Conditions: with smad2_human SMAD2, Q15796

effect of a mutation on the interaction | Variant
with no effect | D493H
with no effect | Y513A
with no effect | D537H
decreasing interaction strength | K428A
decreasing interaction strength | K507A
with no effect | R441P
decreasing interaction strength | R515A

Second part, the variant before the results:

Variant | effect of a mutation on the interaction
R420H | with no effect
D351H | disrupting interaction strength
V370D | with no effect
R361H | disrupting interaction strength

Variants of: B2
Conditions: with smad4_human SMAD4, Q13485

effect of a mutation on the interaction | Variant
with no effect | R428A
with no effect | Y426A
disrupting interaction strength | D450H

More lines, now with the values behind:

Variant | effect of a mutation on the interaction
K375A | with no effect
R310H | decreasing interaction strength
D300H | decreasing interaction strength
D300H;R310H | with no effect
Y406H | with no effect
K420A | with no effect
V319D | with no effect
W368H | with no effect
K375H;K420A | with no effect
D300H;K375A | with no effect
R310H;K420A | with no effect
R310H;K375A | with no effect
N387P | with no effect
D300H;K420A | with no effect
